Experimental data reported in US20170340734A1 (INSERM INSTITUT NATIONAL DE LA SANT ET DE LA RECHERCHE M …, published 2017).

Key:
[1] = target: T1, murine AXL (murine, UniProt Q00993 19-443, limits assumed); assay: not described (FIG. 6)
T1 construct: also called murine form of AXL
T1 sequence (looked up): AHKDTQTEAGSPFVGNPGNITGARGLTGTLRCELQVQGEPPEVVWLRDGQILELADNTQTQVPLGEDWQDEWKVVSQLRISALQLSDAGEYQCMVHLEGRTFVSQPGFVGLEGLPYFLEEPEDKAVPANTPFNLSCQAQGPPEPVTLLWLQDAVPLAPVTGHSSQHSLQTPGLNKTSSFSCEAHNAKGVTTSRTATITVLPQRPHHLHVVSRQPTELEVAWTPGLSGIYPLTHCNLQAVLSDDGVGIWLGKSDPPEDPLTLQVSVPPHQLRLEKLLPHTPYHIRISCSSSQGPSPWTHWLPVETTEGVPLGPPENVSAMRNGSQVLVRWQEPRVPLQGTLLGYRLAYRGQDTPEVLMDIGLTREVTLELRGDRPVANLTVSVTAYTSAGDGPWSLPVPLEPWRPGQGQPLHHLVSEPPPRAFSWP

[2] = target: T2, human AXL (human, UniProt P30530 26-449, limits assumed); assay: not described (FIG. 6)
T2 construct: In the degradation, internalization and homodimerization experiments the receptor stood on the tumor cell surface; also called AXL receptor; human form of AXL
T2 sequence (looked up): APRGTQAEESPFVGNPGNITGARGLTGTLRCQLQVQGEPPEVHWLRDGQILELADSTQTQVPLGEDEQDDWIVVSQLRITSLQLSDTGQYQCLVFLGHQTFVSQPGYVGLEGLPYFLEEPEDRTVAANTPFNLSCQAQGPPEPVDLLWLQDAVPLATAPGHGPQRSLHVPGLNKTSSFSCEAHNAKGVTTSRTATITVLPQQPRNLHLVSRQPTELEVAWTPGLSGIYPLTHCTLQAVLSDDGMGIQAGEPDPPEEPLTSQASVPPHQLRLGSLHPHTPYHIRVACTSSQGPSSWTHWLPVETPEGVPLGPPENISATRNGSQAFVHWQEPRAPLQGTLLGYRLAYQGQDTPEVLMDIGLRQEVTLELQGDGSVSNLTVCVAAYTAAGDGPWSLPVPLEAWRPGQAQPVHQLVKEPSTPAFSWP

binding result [1]: binds
binding result [2]: binds
B1: human monoclonal antibody D4 (antibody, V domains shown)
VH: EVQLVESGGSLVKPGGSLRLSCAASGFTFSNYSMNWVRQAPGKGLEWISSISGSSRYIYYADFVKGRFTISRDNATNSLYLQMNSLRAEDTAVYYCVRGRKDSGTIYHWGRGTLVTVSS
VL: QSVLTQPASVSGSPGQSITISCAGTSSDVGGYNYVSWYQQHPGKAPKLMIYEDSKRPSGVSNRFSGSKSGNTASLTISGLQAEDEADYYCKKDDYSLRFTFGGGTKLAVLG
notes: also called D4 antibody; D4 human monoclonal antibody
